Measured values from patent US20220401544A1.

Experiments:
[1] = target: N. meningitidis serogroup B factor H binding protein (fHBP, LP2086) variant A02 (Neisseria meningitidis serogroup B)
[2] = target: N. meningitidis serogroup B factor H binding protein (fHBP, LP2086) variant A28 (Neisseria meningitidis serogroup B)
[3] = target: N. meningitidis serogroup B factor H binding protein (fHBP, LP2086) variant A42 (Neisseria meningitidis serogroup B)
[4] = target: N. meningitidis serogroup B factor H binding protein (fHBP, LP2086) variant A63 (Neisseria meningitidis serogroup B)
[5] = target: N. meningitidis serogroup B factor H binding protein (fHBP, LP2086) variant A76 (Neisseria meningitidis serogroup B)
[6] = target: N. meningitidis serogroup B factor H binding protein (fHBP, LP2086) variant B05 (Neisseria meningitidis serogroup B) (UniProt E6MV22)
[7] = target: N. meningitidis serogroup B factor H binding protein (fHBP, LP2086) variant B07 (Neisseria meningitidis serogroup B) (UniProt E6MV22)
[8] = target: N. meningitidis serogroup B factor H binding protein (fHBP, LP2086) variant B08 (Neisseria meningitidis serogroup B) (UniProt E6MV22)
[9] = target: N. meningitidis serogroup B factor H binding protein (fHBP, LP2086) variant B107 (Neisseria meningitidis serogroup B)
[10] = target: N. meningitidis serogroup B factor H binding protein (fHBP, LP2086) variant B13 (Neisseria meningitidis serogroup B) (UniProt E6MV22)
[11] = target: N. meningitidis serogroup B factor H binding protein (fHBP, LP2086) variant B52 (Neisseria meningitidis serogroup B) (UniProt E6MV22)
[12] = target: N. meningitidis factor H binding protein (fHBP) variant A10 (Neisseria meningitidis serogroup B)
[13] = target: N. meningitidis serogroup B factor H binding protein (fHBP) variant A08 (Neisseria meningitidis serogroup B)
[14] = target: N. meningitidis serogroup B factor H binding protein (fHBP) variant A20 (Neisseria meningitidis serogroup B)
[15] = target: N. meningitidis serogroup B factor H binding protein (fHBP) variant A40 (Neisseria meningitidis serogroup B)
[16] = target: N. meningitidis serogroup B factor H binding protein (fHBP) variant A52 (Neisseria meningitidis serogroup B)
[17] = target: N. meningitidis serogroup B factor H binding protein (fHBP) variant B10 (Neisseria meningitidis serogroup B)
[18] = target: N. meningitidis serogroup B factor H binding protein (fHBP) variant B91 (Neisseria meningitidis serogroup B)
[19] = target: N. meningitidis serogroup B factor H binding protein (FHbp, LP2086) variant A06 (Neisseria meningitidis serogroup B)
[20] = target: N. meningitidis serogroup B factor H binding protein (FHbp, LP2086) variant A07 (Neisseria meningitidis serogroup B)
[21] = target: N. meningitidis serogroup B factor H binding protein (FHbp, LP2086) variant A12 (Neisseria meningitidis serogroup B)
[22] = target: N. meningitidis serogroup B factor H binding protein (FHbp, LP2086) variant A15 (Neisseria meningitidis serogroup B)
[23] = target: N. meningitidis serogroup B factor H binding protein (FHbp, LP2086) variant A19 (Neisseria meningitidis serogroup B)
[24] = target: N. meningitidis serogroup B factor H binding protein (FHbp, LP2086) variant A22 (Neisseria meningitidis serogroup B)
[25] = target: N. meningitidis serogroup B factor H binding protein (FHbp, LP2086) variant A29 (Neisseria meningitidis serogroup B)
[26] = target: N. meningitidis serogroup B factor H binding protein (FHbp, LP2086) variant A56 (Neisseria meningitidis serogroup B)
[27] = target: N. meningitidis serogroup B factor H binding protein (FHbp, LP2086) variant B03 (Neisseria meningitidis serogroup B) (UniProt E6MV22)
[28] = target: N. meningitidis serogroup B factor H binding protein (FHbp, LP2086) variant B09 (Neisseria meningitidis serogroup B) (UniProt E6MV22)
[29] = target: N. meningitidis serogroup B factor H binding protein (FHbp, LP2086) variant B15 (Neisseria meningitidis serogroup B) (UniProt E6MV22)
[30] = target: N. meningitidis serogroup B factor H binding protein (FHbp, LP2086) variant B16 (Neisseria meningitidis serogroup B) (UniProt E6MV22)
[31] = target: N. meningitidis serogroup B factor H binding protein (FHbp, LP2086) variant B24 (Neisseria meningitidis serogroup B) (UniProt E6MV22)
[32] = target: N. meningitidis serogroup B factor H binding protein (FHbp, LP2086) variant B44 (Neisseria meningitidis serogroup B)
[33] = target: N. meningitidis serogroup B factor H binding protein (FHbp, LP2086) variant A56 (Neisseria meningitidis serogroup B); assay: MEASURE flow cytometry, variant group A56 (only one strain)
[34] = target: N. meningitidis serogroup B factor H binding protein (FHbp, LP2086) variant A06 (Neisseria meningitidis serogroup B); assay: MEASURE flow cytometry, median over MenB isolates expressing A06
[35] = target: N. meningitidis serogroup B factor H binding protein (FHbp, LP2086) variant A12 (Neisseria meningitidis serogroup B); assay: MEASURE flow cytometry, median over MenB isolates expressing A12
[36] = target: N. meningitidis serogroup B factor H binding protein (FHbp, LP2086) variant A15 (Neisseria meningitidis serogroup B); assay: MEASURE flow cytometry, median over MenB isolates expressing A15
[37] = target: N. meningitidis serogroup B factor H binding protein (FHbp, LP2086) variant A19 (Neisseria meningitidis serogroup B); assay: MEASURE flow cytometry, median over MenB isolates expressing A19
[38] = target: N. meningitidis serogroup B factor H binding protein (FHbp, LP2086) variant A22 (Neisseria meningitidis serogroup B); assay: MEASURE flow cytometry, median over MenB isolates expressing A22
[39] = target: N. meningitidis serogroup B factor H binding protein (FHbp, LP2086) variant A29 (Neisseria meningitidis serogroup B); assay: MEASURE flow cytometry, median over MenB isolates expressing A29
[40] = target: N. meningitidis serogroup B factor H binding protein (FHbp, LP2086) variant B03 (Neisseria meningitidis serogroup B) (UniProt E6MV22); assay: MEASURE flow cytometry, median over MenB isolates expressing B03
[41] = target: N. meningitidis serogroup B factor H binding protein (FHbp, LP2086) variant B09 (Neisseria meningitidis serogroup B) (UniProt E6MV22); assay: MEASURE flow cytometry, median over MenB isolates expressing B09
[42] = target: N. meningitidis serogroup B factor H binding protein (FHbp, LP2086) variant B15 (Neisseria meningitidis serogroup B) (UniProt E6MV22); assay: MEASURE flow cytometry, median over MenB isolates expressing B15
[43] = target: N. meningitidis serogroup B factor H binding protein (FHbp, LP2086) variant B16 (Neisseria meningitidis serogroup B) (UniProt E6MV22); assay: MEASURE flow cytometry, median over MenB isolates expressing B16
[44] = target: N. meningitidis serogroup B factor H binding protein (FHbp, LP2086) variant B24 (Neisseria meningitidis serogroup B) (UniProt E6MV22); assay: MEASURE flow cytometry, median over MenB isolates expressing B24
[45] = target: N. meningitidis serogroup B factor H binding protein (FHbp, LP2086) variant B44 (Neisseria meningitidis serogroup B); assay: MEASURE flow cytometry, median over MenB isolates expressing B44

Question: With monoclonal antibody MN86-994-11 as the substance, how does the fHBP Expression (MFI) [1] read?
Answer: 13200 MFI

Question: What about the fHBP Expression (MFI) [2] of the same substance?
Answer: 4190 MFI

Question: What about the fHBP Expression (MFI) [3] of the same substance?
Answer: 1610 MFI

Question: And the fHBP Expression (MFI) [4]?
Answer: 10800 MFI

Question: And the fHBP Expression (MFI) [5]?
Answer: 11300 MFI

Question: And the fHBP Expression (MFI) [6]?
Answer: 2920 MFI

Question: What about the fHBP Expression (MFI) [7] of the same substance?
Answer: 1350 MFI

Question: What about the fHBP Expression (MFI) [8] of the same substance?
Answer: 1560 MFI

Question: What about the fHBP Expression (MFI) [9] of the same substance?
Answer: 11100 MFI

Question: And the fHBP Expression (MFI) [10]?
Answer: 1850 MFI

Question: And the fHBP Expression (MFI) [11]?
Answer: 8730 MFI

Question: What about the fHBP Expression (MFI) [12] of the same substance?
Answer: < 1000 MFI

Question: And the fHBP Expression (MFI) [13]?
Answer: < 1000 MFI

Question: What about the fHBP Expression (MFI) [14] of the same substance?
Answer: < 1000 MFI

Question: And the fHBP Expression (MFI) [15]?
Answer: < 1000 MFI

Question: What about the fHBP Expression (MFI) [16] of the same substance?
Answer: < 1000 MFI

Question: What about the fHBP Expression (MFI) [17] of the same substance?
Answer: < 1000 MFI

Question: What about the fHBP Expression (MFI) [18] of the same substance?
Answer: < 1000 MFI

Question: What about the Strain MEASURE MFI [19] of the same substance?
Answer: 3370 MFI

Question: And the FHbp Variant Group MEASURE MFI Median [20]?
Answer: 1100 MFI

Question: What about the Strain MEASURE MFI [20] of the same substance?
Answer: 1380 MFI

Question: And the Strain MEASURE MFI [21]?
Answer: 2540 MFI

Question: What about the Strain MEASURE MFI [22] of the same substance?
Answer: 3000 MFI

Question: What about the Strain MEASURE MFI [23] of the same substance?
Answer: 1930 MFI

Question: What about the Strain MEASURE MFI [24] of the same substance?
Answer: 3130 MFI

Question: What about the Strain MEASURE MFI [25] of the same substance?
Answer: 3840 MFI

Question: What about the Strain MEASURE MFI [26] of the same substance?
Answer: 5000 MFI

Question: And the Strain MEASURE MFI [27]?
Answer: 3980 MFI

Question: What about the Strain MEASURE MFI [28] of the same substance?
Answer: 2090 MFI

Question: What about the Strain MEASURE MFI [29] of the same substance?
Answer: 3780 MFI

Question: And the Strain MEASURE MFI [30]?
Answer: 2350 MFI

Question: What about the Strain MEASURE MFI [31] of the same substance?
Answer: 6970 MFI

Question: And the Strain MEASURE MFI [32]?
Answer: 11300 MFI

Question: And the FHbp Variant Group MEASURE MFI Median [33]?
Answer: 5000 MFI

Question: And the FHbp Variant Group MEASURE MFI Median [34]?
Answer: 3090 MFI

Question: And the FHbp Variant Group MEASURE MFI Median [35]?
Answer: 2470 MFI

Question: And the FHbp Variant Group MEASURE MFI Median [36]?
Answer: 2900 MFI

Question: What about the FHbp Variant Group MEASURE MFI Median [37] of the same substance?
Answer: 1760 MFI

Question: And the FHbp Variant Group MEASURE MFI Median [38]?
Answer: 2500 MFI

Question: What about the FHbp Variant Group MEASURE MFI Median [39] of the same substance?
Answer: 5990 MFI

Question: And the FHbp Variant Group MEASURE MFI Median [40]?
Answer: 2940 MFI

Question: And the FHbp Variant Group MEASURE MFI Median [41]?
Answer: 2280 MFI

Question: What about the FHbp Variant Group MEASURE MFI Median [42] of the same substance?
Answer: 4820 MFI

Question: What about the FHbp Variant Group MEASURE MFI Median [43] of the same substance?
Answer: 2000 MFI

Question: And the FHbp Variant Group MEASURE MFI Median [44]?
Answer: 8460 MFI

Question: What about the FHbp Variant Group MEASURE MFI Median [45] of the same substance?
Answer: 14800 MFI
